Experimental data as given in patent US20240294646A1.

Columns and labels:
C1q (human) [1] = biological target: C1q (human) (UniProt P02745); assay: C1q ELISA, antibody coated
[2] = biological target: Soluble FcγRIIb extracellular domain with C-terminal 10×His tag (UniProt P31994); assay: SPR (Protocol 2); ratio of FcγRIIb fold to FcγRIIaR fold over wild-type
[3] = biological target: Soluble FcγRIIaR extracellular domain with C-terminal 10×His tag (UniProt P12318); assay: SPR (Protocol 2): one-armed antibody captured on immobilised HER2, soluble receptor as analyte; fold over wild-type
[4] = biological target: Soluble FcγRIIb extracellular domain with C-terminal 10×His tag (UniProt P31994); assay: as above
FcγRIIaR = FcγRIIaR (UniProt P12318); assay: SPR; trastuzumab FSA variant against FSA WT v21653
FcγRIIb [5] = biological target: FcγRIIb (UniProt P31994); assay: SPR; trastuzumab FSA variant against FSA WT v21653
C1q (human) [6] = biological target: C1q (human) (UniProt P02745); assay: ELISA; antibody coated, human C1q added, signal as % of WT
FcγRIIb [7] = biological target: FcγRIIb (UniProt P31994); assay: SPR; ratio of IIb-fold to IIaR-fold, FcγRIIaR as comparison receptor

Soluble FcγRIIb extracellular domain with C-terminal 10×His tag, sequence (P31994 other isoform, or with tags, fused parts or gaps): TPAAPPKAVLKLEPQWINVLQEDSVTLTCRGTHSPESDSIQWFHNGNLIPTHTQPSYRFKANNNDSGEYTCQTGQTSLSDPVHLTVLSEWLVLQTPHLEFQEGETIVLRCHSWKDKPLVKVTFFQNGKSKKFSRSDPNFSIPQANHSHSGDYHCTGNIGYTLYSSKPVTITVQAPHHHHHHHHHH
FcγRIIb, sequence (P31994 43-217): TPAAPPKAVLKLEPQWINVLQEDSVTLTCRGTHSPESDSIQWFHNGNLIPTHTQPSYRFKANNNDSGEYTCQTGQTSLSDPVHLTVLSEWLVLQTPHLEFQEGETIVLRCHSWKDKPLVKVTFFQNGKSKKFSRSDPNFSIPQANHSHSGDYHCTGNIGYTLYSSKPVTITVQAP
Soluble FcγRIIaR extracellular domain with C-terminal 10×His tag, sequence (P12318 other isoform, or with tags, fused parts or gaps): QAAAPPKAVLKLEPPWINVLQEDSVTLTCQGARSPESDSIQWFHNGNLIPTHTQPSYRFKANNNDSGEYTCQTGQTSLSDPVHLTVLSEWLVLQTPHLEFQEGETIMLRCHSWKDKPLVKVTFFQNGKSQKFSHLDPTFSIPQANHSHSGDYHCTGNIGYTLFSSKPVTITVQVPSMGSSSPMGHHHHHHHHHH
C1q (human), sequence (P02745 23-245 limits assumed, chain 1 of 3): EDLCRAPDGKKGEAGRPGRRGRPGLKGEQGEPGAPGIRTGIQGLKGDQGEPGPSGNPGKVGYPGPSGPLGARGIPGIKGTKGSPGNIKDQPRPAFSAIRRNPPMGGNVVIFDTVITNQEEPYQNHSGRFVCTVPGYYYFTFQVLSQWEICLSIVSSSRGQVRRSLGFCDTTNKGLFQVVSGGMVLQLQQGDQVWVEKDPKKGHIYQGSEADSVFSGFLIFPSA
C1q (human), sequence (P02746 28-253 limits assumed, chain 2 of 3, further chain): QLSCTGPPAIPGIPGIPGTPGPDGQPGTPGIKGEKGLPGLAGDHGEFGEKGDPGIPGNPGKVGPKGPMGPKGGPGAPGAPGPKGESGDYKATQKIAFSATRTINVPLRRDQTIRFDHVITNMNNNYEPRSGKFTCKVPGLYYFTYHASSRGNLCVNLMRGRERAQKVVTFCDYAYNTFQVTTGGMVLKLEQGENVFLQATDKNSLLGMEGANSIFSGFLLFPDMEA
C1q (human), sequence (P02747 29-245 limits assumed, chain 3 of 3, further chain): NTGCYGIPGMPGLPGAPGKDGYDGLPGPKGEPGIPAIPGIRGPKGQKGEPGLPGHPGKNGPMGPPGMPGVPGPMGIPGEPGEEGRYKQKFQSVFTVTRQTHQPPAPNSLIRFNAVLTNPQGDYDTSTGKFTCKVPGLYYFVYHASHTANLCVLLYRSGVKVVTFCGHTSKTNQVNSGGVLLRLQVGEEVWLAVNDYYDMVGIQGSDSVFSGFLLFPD
FcγRIIaR, sequence (P12318 34-217): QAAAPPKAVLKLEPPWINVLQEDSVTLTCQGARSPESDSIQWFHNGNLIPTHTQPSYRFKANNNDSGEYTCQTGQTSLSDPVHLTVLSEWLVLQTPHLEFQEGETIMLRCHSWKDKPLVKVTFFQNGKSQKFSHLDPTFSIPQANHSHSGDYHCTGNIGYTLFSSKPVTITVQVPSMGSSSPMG

| Substance | C1q Concentration at Onset of Binding (C1q (human) [1]) [nM] | EC50 (C1q (human) [1]) [nM] | IIb/IIaR Selectivity (IIb-Fold/IIaR-Fold) [2] | IIaR-fold (fold change in affinity over wild-type) [3] [fold] | IIb-fold (fold change in affinity over wild-type) [4] [fold] | C1q - Variant Binding Relative to WT (%) (C1q (human) [1]) | further results |
| --- | --- | --- | --- | --- | --- | --- | --- |
| anti-CD40 (Chi Lob 7/4) full-size antibody, wild-type CH2 (variant 21653) | 0.41 | 1.49 | – | – | – | – | – |
| Variant 22117 (one-armed trastuzumab antibody, heterodimeric IgG1 Fc; A: L234D_G236N_H268Q_K274Q_A327G_A330K_P331S / B: L234F_G236D_S239D_V266L_S267A_H268D_K274Q_A327G_A330S_P331S) | – | – | 12.7 | 2.3 | 28.7 | – | – |
| anti-CD19 (4G7) full-size antibody, wild-type CH2 (variant 21653) | – | 0.31 | – | – | – | – | – |
| anti-CD40 (Chi Lob 7/4) full-size antibody, control v12 (symmetrical E233D_G237D_P238D_H268D_P271G_A330R) | – | – | – | – | – | 0 | – |
| anti-CD19 (4G7) full-size antibody, control v12 (symmetrical E233D_G237D_P238D_H268D_P271G_A330R) | 2.84 | – | – | – | – | 6.72 | – |
| Variant 22131 (one-armed trastuzumab antibody, heterodimeric IgG1 Fc; A: L234F_G236N_S267A / B: G236D_S239D_V266L_S267A_H268D) | – | – | 10.4 | 4.3 | 45.1 | – | – |
| Variant 22115 (one-armed trastuzumab antibody, heterodimeric IgG1 Fc; A: L234D_G236N_S267A_H268Q_K274Q_A327G_A330K_P331S / B: G236D_S239D_V266L_S267I_H268D_L234F_K274Q_A327G_A330K_P331S) | – | – | 5.9 | 0.4 | 2.6 | – | – |
| anti-CD40 (Chi Lob 7/4) full-size antibody, Fc negative variant (L234A_L235A_D265S) | – | – | – | – | – | 0 | – |
| anti-CD19 (4G7) full-size antibody, Fc negative variant (L234A_L235A_D265S) | 29.6 | – | – | – | – | 0.61 | – |
| Variant 22120 (one-armed trastuzumab antibody, heterodimeric IgG1 Fc; A: L234F_G236N_H268Q_K274Q_A327G_A330K_P331S_K326D / B: L234F_G236D_S239D_V266L_S267A_H268D_K274Q_A327G_A330S_P331S_K326D) | – | – | 8.8 | 9.7 | 85.8 | – | – |
| Variant 19585, Lead 2 (one-armed trastuzumab antibody, heterodimeric IgG1 Fc; A: L234F_G236N_H268Q_K274Q_A327G_A330K_P331S / B: L234F_G236D_S239D_V266L_S267A_H268D_K274Q_A327G_A330S_P331S) | – | – | 12 | 4.1 | 49.5 | – | – |
| anti-CD40 (Chi Lob 7/4) full-size antibody, control SELF (S267E_L328F) | 0.73 | 4.73 | – | – | – | 50.4 | – |
| anti-CD19 (4G7) full-size antibody, control SELF (S267E_L328F) | – | 0.36 | – | – | – | – | – |
| anti-HER2 (trastuzumab) full-size antibody, wild-type CH2 (variant 21653) | 0.16 | 0.88 | – | – | – | – | – |
| Variant 32270 (trastuzumab FSA; chain A E272Y_strat2, chain B G237L_strat2) (antibody) | – | – | – | – | – | – | IIaR-fold (fold change in affinity over wild-type) (FcγRIIaR): 11 fold over WT; IIb-fold (fold change in affinity over wild-type) (FcγRIIb [5]): 196 fold over WT; C1q Binding (% WT) (C1q (human) [6]): -1 % WT; IIb Selectivity (IIb-Fold/IIaR-Fold) (FcγRIIb [7]): 18 |
| Variant 32278 (trastuzumab FSA; chain A S267A_strat2, chain B G237L_strat2) (antibody) | – | – | – | – | – | – | IIaR-fold (fold change in affinity over wild-type) (FcγRIIaR): 9 fold over WT; IIb-fold (fold change in affinity over wild-type) (FcγRIIb [5]): 155 fold over WT; C1q Binding (% WT) (C1q (human) [6]): 1 % WT; IIb Selectivity (IIb-Fold/IIaR-Fold) (FcγRIIb [7]): 17 |
